Response data for 1 variant are collected here from article PMC6323126.

To fix the notation:
B1: FHA domain (residues 5–135) of SLMAP [human] / MST2 kinase domain (residues 1–308) [human] (parent)
chain 1: LAIFTCRPNSHPFQERHVYLDEPIKIGRSVARCRPAQNNATFDCKVLSRNHALVWFDHKTGKFYLQDTKSSNGTFINSQRLSRGSEESPPCEILSGDIIQFGVDVTENTRKVTHGCIVSTIKLFLPDGMEA
chain 2: MEQPPAPKSKLKKLSEDSLTKQPEEVFDVLEKLGEGSYGSVFKAIHKESGQVVAIKQVPVESDLQEIIKEISIMQQCDSPYVVKYYGSYFKNTDLWIVMEYCGAGSVSDIIRLRNKTLIEDEIATILKSTLKGLEYLHFMRKIHRDIKAGNILLNTEGHAKLADFGVAGQLTDTMAKRNTVIGTPFWMAPEVIQEIGYNCVADIWSLGITSIEMAEGKPPYADIHPMRAIFMIPTNPPPTFRKPELWSDDFTDFVKKCLVKNPEQRATATQLLQHPFIKNAKPVSILRDLITEAMEIKAKRHEEQQRE

Variants of B1 are the subject of this assay. The assay is described as follows: BLI. Conditions: with MST2 kinase domain (residues 1–308) [human]; read at the end of association (about 360 s); parent: 2.1; read off a plot.
Regarding chain 1 R49A, the response was found to be 0.57 nm.
